Assay: yeast display, Sf9 membrane polyspecificity reagent, FACS + sequencing; frameworks hold sequencing errors
Summary of the method: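 Nanobodies came from a synthetic yeast display library in Saccharomyces cerevisiae BJ5465, induced with galactose for 36–48 hours and stained for 1 hour at 4 °C with 10% biotinylated, detergent-solubilized Sf9 membrane reagent. Cells were enriched on streptavidin microbeads and then FACS-sorted, with low and high (top ~1%) gates set on anti-HA fluorescence for expression and streptavidin fluorescence for reagent binding. Each polyreactivity label reflects the gate a clone came from. Genes were amplified by colony PCR, sequenced by MiSeq 2 × 250 and filtered by CDR length.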

Sequence	polyreactivity (PSR sort gate)
QVQLVESGGGLVQAGGSLRLSCAASGRISVFNAMGWYREAPGKERELVAAITSGGSTNYADSVKGRFTISRDNAKNTVYLQMNSLKPEDTAVYYCNADVYHSHEPHYDYWGQGTQVTVSS	low polyreactivity
QVQLVESGGGLVQAGGSLRLSCAASGRISVVNARGWYRQAPGKERELVAAIRRASTNYADSVKGRFTISRDIAKNTVYLQMNILKPEDTAVYYCAARVYGINIFEYWGQGTQVTVSS	high polyreactivity
QVQLVESGGGLVQAGGSLRLSCAASGRISWGYAMGWYRQAPGKERELVAVINFNGGRTYYADSVKGRFTISRDNAKNTVYLQMNSLKPEDTAVYYCAADSGYEYDYWGQGTQVTVSS	low polyreactivity
QVQLVESGGGLVQAGGSLRLSCAASGRISYAYAMGRYRQAPGKERELVAAISGSGGSTYYADSVKWRFTISRDNAKNTVYFQMNTLKPEDTAVYYCAAGSGEYYGGKRYYWGQGTQVTVSS	low polyreactivity
QVQLVESGGGLVQAGGSLRLSCAASGRIVLGYAMGWYRQQPGKEMELVAAISRSGGGTFYADSVKGRFTISRDNAKNTVYLQMNSLKPEDTAVYYCNARRGRASGMDYWGQGTQVTVSS	high polyreactivity
QVQLVESGGGLVQAGGSLRLSCAASGRIVNRYAMGWDRQAPVKERELVAAITYNGGSTYYADSVKGRFTISRDNAKNTVYLQMNSLKPVDTAVYYCNAVEVLDEGWGFWYYYWGQGTQVTVSS	high polyreactivity
QVQLVESGGGLVQAGGSLRLSCAASGRIVRNAMGWYRQSPGKERELVAAISRSGGSTYYADSVKGRFTISRDNAKNTVYLQMNSLKPEDTAVYYCAKRSTSQSLQGEYWGQGTQVTVSS	high polyreactivity
QVQLVESGGGLVQAGGSLRLSCAASGRIVVGYAMGWYRQAPGKERELVAAINRSGSSTYYADSVKGRFTISRDNAKNTVYLQMNSLKPEDTAVYYCNARSGNRYGPRYDYWGQGTQVTVSS	high polyreactivity
QVQLVESGGGLVQAGGSLRLSCAASGRIWWNAMGWYRPAPGNETELVAAIRWSGGITRYADSVKGRFTISRDNAKNTVDLQMHSLKPEDTAVYYCAARLGGSIRSKFDYWGQGTQVTVSS	high polyreactivity
QVQLVESGGGLVQAGGSLRLSCAASGRIYDYNTMGWYRKAPGKERELVAAITGGTGSTYYADSVKGRFTISRDNAKNTVYLQMNSLKPEDTAVYYCAAGFHKRVTPEILYDYWGQGTQVTVSS	low polyreactivity
QVQLVESGGGLVQAGGSLRLSCAASGRIYDYYAMGWYRQAPGKERELVAAISTSGGSTYYADSVKGRFTISRDHAKNTVYLQMKSLKPEDTAVYYCAKDITVTYPGLDYDYWGQVTQVTVSS	low polyreactivity
QVQLVESGGGLVQAGGSLRLSCAASGRIYGANTMGWYRQAPGKERELVAAISWRGTSTYADSVKGRFSISRDNAKNTVYLQMNSLKPEDTAVYYCAARRRGWPQFDYWGQGTQVTVSS	high polyreactivity
QVQLVESGGGLVQAGGSLRLSCAASGRIYGDYAMGWYRQAPGKERELVARITWSGTGTYYADSVKGRFTISRDNAKNTVYLQMNSLKPEDTAVYYCNADWQVKWYYYWGQVTQVTVSS	low polyreactivity
QVQLVESGGGLVQAGGSLRLSCAASGRIYGNAMGWYRQAPGKERELDAAISFSVSSTNYADSVKGRFTISRDNAKNTVYLQMNSLKPEDTAVYYCAADWIGPTYPEMYYWGQGTQVTVSS	low polyreactivity
QVQLVESGGGLVQAGGSLRLSCAASGRIYGTNAMGWYRQAPGKEMELVAAINGSDSSTYYADSVKGRFTISRDNAKNTVYLQINSLKPEDTAVYYCNADWSGAPERSTDGYDYWGQGTQVTVSS	low polyreactivity
QVQLVESGGGLVQAGGSLRLSCAASGRIYGYYGMGWYRQAPGKERELVAAITYRGGSTYYADSVKGRFTISRDNAKNTVYLQMNSLKPEDTAVYYCAADGYSHYRYLYDYWGQGTQVTVSS	low polyreactivity

Sequence	polyreactivity (PSR sort gate)
QVQLVESGGGLVQAGGSLRLSCAASGRIYNSYAMGWYRQAPGKERELVASTNYADSVKGRFTISRDNAKNTVYLQMNSLKPEDSAVYYCARVDVGWQGGEVLFGRFGYWGQGTQVTVSS	low polyreactivity
QVQLVESGGGLVQAGGSLRLSCAASGRIYPKYGMGWYRQAPGKERELVAAITSGTSTYYADSVKGRFTISRDNAKNTVYLQMNSLKPEDTAVYYCAARPTDGSGWPYRWTSDYWGQATQVTVSS	low polyreactivity
QVQLVESGGGLVQAGGSLRLSCAASGRIYRYYAMGWYRQPPAKERELVAAIRRGGSTSYADSVKGRFTISRDNAKNTVYLQMNSLKPEDTAVYYCAATQYYRGYDYWGQGTQVTVSS	high polyreactivity
QVQLVESGGGLVQAGGSLRLSCAASGRIYSFYAMGWYRQAPGKERELVAAITYTDGSTYADSVKGRFTISRDNAKNTVYLQLNSLKPEDTSVYYFATRYRWTPYDFWGQGTQVTVSS	low polyreactivity
QVQLVESGGGLVQAGGSLRLSCAASGRIYSSYAMGRYRQAPGKERELVAAISYSGDRTYYADSVKGRFTISRDNAKNTVYLQMNSLKPEDTAVYYCAARRVTRTTVYRYQYYYWGQGTQVTVSS	high polyreactivity
QVQLVESGGGLVQAGGSLRLSCAASGRIYTRYMGWYRQAPGKEREMVATINWSGGSTYYADSVKGRFTISRDNAKNTVYLQMNSLKPEDTAVYYCNARNVDFYYVQYNGAKIFDYWGQGTQVTVSS	low polyreactivity
QVQLVESGGGLVQAGGSLRLSCAASGRIYTYYTMGWYRQAPGKERELVAAITVRGGRTYYADSVKGRFTISRDNAKNTDYLQMNSLKPEDTAVYYCAARGLVRSYDYWGQVTQVTVSS	high polyreactivity
QVQLVESGGGLVQAGGSLRLSCAASGRLFNYNAMGWYRQAPGKERELVASITVSRGSTYYADSVKGRFTISRDNATNTVYLQMYSLKPEDTAVYNCAADYGSKLDYGYWGQGTQVTVSS	low polyreactivity
QVQLVESGGGLVQAGGSLRLSCAASGRLFSYYAMGWYRPAPGKERELVAGISYRGGSTYYADSVKGRFTISRDNAKNTVYLQMNSLKPEDTAVYYCAARPYSYGQRSLRGYWGQGTQVTVSS	high polyreactivity
QVQLVESGGGLVQAGGSLRLSCAASGRLFYRNAMGWYRQAPGKERELVAAISSSAGSTYYADSVKGRFTISRDNAKNTVYLQMNSLKPEDTAVYYCAASLYSWGQGTQVTVSS	high polyreactivity
QVQLVESGGGLVQAGGSLRLSCAASGRMFGPYTMGWYRQAPGKEREFVAAITRRGGSTYYADSVKGRFTFSRDNAKNTVYLQMNSLKPEDTAVYYCAAVGQNRSLGYSWGQGTQVTVSS	low polyreactivity
QVQLVESGGGLVQAGGSLRLSCAASGRMFSAYAMGWYRQAPGKERELVAAITSVGSTKYADSVKGRFTISRDNAKNTVYLQMNSLKPEDTAVYYCAAEYTRSFYIYYRFGYWGQGTQVTVSS	high polyreactivity
QVQLVESGGGLVQAGGSLRLSCAASGRNFGPYAMGWSRQAPGKERELVASITRSGGRTYYADSVKGRYTISRDNAKNTVYLQMNSLKPEDTAVYYCAAGGFSKSYYYWGQGTQVTVSS	high polyreactivity
QVQLVESGGGLVQAGGSLRLSCAASGRNFGPYAMGWYRQAPGKERELVAVISTRGGITNYADSVKGRFTISRDTAKNTVYVQLNSLKPEDTAVYYCAARFSYPYRIAFNYWGQGTQVTVSS	low polyreactivity
QVQLVESGGGLVQAGGSLRLSCAASGRNFGSYAMGWYRQAPGKERELVAAITSGGSTYYADSVKGRFTISRDNAKNTVYLQMNSLKPEDTAVYYCAARQVRTSKLHMGYWGQGTQVTVSS	low polyreactivity
QVQLVESGGGLVQAGGSLRLSCAASGRNFKHYAMGWYRQAPGKERELVAAISYSGGSPKYADSVKGRFTISRYNAMNTVYLQMNSLKPEDTAVYYCAARFFTPFRFSYDYWGQGTQVTVSS	high polyreactivity
